Experimental findings from patent US20050070689A1 (Genentech, published 2005) are described below.

In assay [1] the target is T1, APRIL (full length cDNA clone without Flag tag) expressed on transfected COS 7 cells (human, UniProt O75888 105-250).
T1 construct: also called APRIL-transfected COS 7 cells
T1 sequence: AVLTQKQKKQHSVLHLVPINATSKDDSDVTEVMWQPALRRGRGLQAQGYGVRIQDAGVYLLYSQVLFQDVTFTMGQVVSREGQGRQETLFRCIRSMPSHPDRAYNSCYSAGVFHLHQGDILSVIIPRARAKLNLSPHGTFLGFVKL
Description: receptor-Fc staining of transfected COS 7 cells, biotinylated anti-human antibody and Cy3-streptavidin. Here is the method: Transfected COS 7 cells were subsequently incubated with TACI.ECD.hFC immunoadhesin, hBr3-hFc, or mBR3-hFc (prepared as described above). Cells were incubated with the TACI ECD-IgG (or a TNFR1-IgG construct prepared as described in Ashkenazi et al., Proc. Natl. Acad. Sci., 88:10535-10539 (1991)) at 1 μg/ml for 1 hour in PBS. Cells were subsequently washed three times with PBS and fixed with 4% paraformaldehyde in PBS. Cell staining was visualized by incubation with biotinylated goat anti-human antibody (Jackson Labs, at 1:200 dilution) followed by Cy3-streptavidin (Jackson Labs, at 1:200 dilution). Murine BR3-Fc, like hBR3-hFc, also only bound TALL-1-transfected but not APRIL-transfected COS 7 cells (data not shown). […] In contrast, TACI-hFc fusion protein bound cells transfected with either TALL-1 or APRIL (FIG. 10).

The next assay has as its target T2, AP-TALL-1 (human, UniProt Q9Y275 136-285).
T2 construct: Used as conditioned medium of transfected 293 cells; AP is at the N-terminus of TALL-1; Flag precedes AP (as described for AP-APRIL); not shown: human placental alkaline phosphatase (AP), amplified from pAPtag-5
Kind of assay: AP-TALL-1 binding to transfected cells.

For assay [2], the target named is T3, human BR3 expressed on transfected COS 7 cells (human, UniProt Q96RJ3 1-184).
T3 construct: also called hBR3
T3 sequence: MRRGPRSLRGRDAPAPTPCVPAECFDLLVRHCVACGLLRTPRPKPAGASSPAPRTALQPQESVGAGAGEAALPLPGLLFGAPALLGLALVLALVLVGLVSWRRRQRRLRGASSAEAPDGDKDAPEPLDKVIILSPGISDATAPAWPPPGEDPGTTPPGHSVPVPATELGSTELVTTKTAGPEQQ
Kind of assay: figure legend: AP-ligand conditioned medium on transfected COS 7 cells, in situ AP staining. Here is the method:
(a) COS 7 transfected with hBR3 (1,2) or TACI (3,4) were incubated with conditioned medium containing AP-TALL-1 (1,3) or AP-April (2,4). Cells were washed, fixed, and stained for the AP activity in situ. (b) COS7 cells transfected with TALL-1 (1,2) or April (3,4) were incubated with hBR3-hFc (1,3) or TACI-hFc (2,4). Cells were washed, fixed, and bound receptor-hFc protein was detected using a biotinylated goat anti-human antibody followed by Cy3-streptavidin. (c) BR3-hFc (1,2) or TACI-hFc (3,4) was incubated with Flag-TALL-1 (1,3) or Flag-April (2,4). The receptor-Fc fusion proteins precipitated with protein-A-agarose were subjected to immunoblotting with anti-Flag antibody. Equivalent amounts of ligand (middle panel) or receptor-hFc (bottom) were used in the binding experiment. (d) 293E cells (Invitrogen) were transfected with 0.25 ug of a NF-kB luciferase reporter gene construct, 25 ng pRL-TK, and indicated amounts of expression constructs encoding hBR3, mBR3, TACI and BCMA. NF-kB activation was determined 20-24 hours later using the Dual-Luciferase reporter assay kit (Promega).

For assay [3], the target named is T4, TACIs expressed on transfected COS 7 cells (human, UniProt O14836 1-292).
T4 sequence: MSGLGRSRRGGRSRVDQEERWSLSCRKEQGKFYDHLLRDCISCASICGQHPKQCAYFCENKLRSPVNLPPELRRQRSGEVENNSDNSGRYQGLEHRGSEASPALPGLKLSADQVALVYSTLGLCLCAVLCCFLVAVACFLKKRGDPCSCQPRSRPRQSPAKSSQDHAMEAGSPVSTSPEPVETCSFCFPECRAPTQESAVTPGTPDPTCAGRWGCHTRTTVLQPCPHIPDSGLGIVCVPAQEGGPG
Description: AP-APRIL staining of transfected cells, in situ AP activity.

Assay [4] has as its target T5, human TACI (265 amino acid form) expressed on transfected COS 7 cells (human, UniProt O14836 1-258).
T5 construct: also called hTACI (265)
T5 sequence: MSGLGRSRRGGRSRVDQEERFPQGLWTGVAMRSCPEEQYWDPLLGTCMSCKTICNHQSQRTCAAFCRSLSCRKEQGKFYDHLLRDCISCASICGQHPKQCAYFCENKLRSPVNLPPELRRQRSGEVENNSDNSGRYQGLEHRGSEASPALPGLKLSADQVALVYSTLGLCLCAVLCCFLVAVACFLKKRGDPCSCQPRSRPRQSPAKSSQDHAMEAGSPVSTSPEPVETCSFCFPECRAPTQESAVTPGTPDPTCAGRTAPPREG
Kind of assay: AP-ligand conditioned medium on transfected COS 7 cells, in situ AP staining.

Assay [5] has as its target T6, murine BR3 expressed on transfected COS 7 cells (murine, UniProt Q9D8D0 1-175).
T6 construct: also called mBR3
T6 sequence: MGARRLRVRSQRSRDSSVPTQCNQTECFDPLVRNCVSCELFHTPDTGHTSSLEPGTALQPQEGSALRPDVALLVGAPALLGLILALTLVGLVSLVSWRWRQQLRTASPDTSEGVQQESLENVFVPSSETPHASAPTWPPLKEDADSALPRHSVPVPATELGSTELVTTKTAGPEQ
The assay is described as above.

T2 sequence (Q9Y275 136-285): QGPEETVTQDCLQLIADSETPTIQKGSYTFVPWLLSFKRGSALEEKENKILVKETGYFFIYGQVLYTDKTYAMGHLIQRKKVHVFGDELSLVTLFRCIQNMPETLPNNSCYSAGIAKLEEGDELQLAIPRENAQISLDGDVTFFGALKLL

B1: Murine BR3-Fc (Fc fusion)
chain: MGARRLRVRSQRSRDSSVPTQCNQTECFDPLVRNCVSCELFHTPDTGHTSSLEPGTALQPQEGSALRPDVA
notes: Only 'prepared as described above' is said; also called mBR3-hFc; not shown: human IgG1 Fc region
Turning to B1, in assay [1], the binding result is “no binding”.

B2: BCMA expressed on transfected cells (receptor)
chain: MLQMAGQCSQNEYFDSLLHACIPCQLRCSSNTPPLTCQRYCNASVTNSVKGTNAILWTCLGLSLIISLAVFVLMFLLRKISSEPLKDEFKNTGSGLLGMANIDLEKSRTGDEIILPRGLEYTVEECTCEDCIKSKPKVDSDHCFPLPAMEEGATILVTTKTNDYCKSLPAALSATEIEKSISAR
notes: The expression construct is only called 'BCMA'; also called BCMA-transfected cells
For the molecule B2, the binding result with AP-TALL-1 was “binds”.

B3: AP-APRIL (ligand)
chain: AVLTQKQKKQHSVLHLVPINATSKDDSDVTEVMWQPALRRGRGLQAQGYGVRIQDAGVYLLYSQVLFQDVTFTMGQVVSREGQGRQETLFRCIRSMPSHPDRAYNSCYSAGVFHLHQGDILSVIIPRARAKLNLSPHGTFLGFVKL
notes: APRIL fused C-terminally to AP, AP fused C-terminally to Flag; not shown: human placental alkaline phosphatase (AP)
As for B3, the binding result is listed as “no binding” in assay [2], “binds” in assay [3], “binds” in assay [4] and “no binding” in assay [5].
